# Laboratory results: patent US20160333101A1 (GENOR BIOPHARMA, published 2016)
# T1: recombinant human RANKL (human, UniProt O14788 136-317)
# T1 sequence: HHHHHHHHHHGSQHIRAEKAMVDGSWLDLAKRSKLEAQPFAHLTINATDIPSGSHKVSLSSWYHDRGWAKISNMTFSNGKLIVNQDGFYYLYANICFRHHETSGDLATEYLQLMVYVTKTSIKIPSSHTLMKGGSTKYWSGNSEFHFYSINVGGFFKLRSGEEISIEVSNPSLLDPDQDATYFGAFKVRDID
# Molecular target: T1, recombinant human RANKL
# Assay: cell-based or functional assay
row,IC50 for inhibiting hRANKL induced RAW264.7 cell differentiation [µg/mL],Binder
1,0.257,"G15 (antibody, human IgG2, kappa, V domains shown) VH: QVQLVQSGAEVKKPGASVKVSCKASGYTFTTYWLQWVRQAPGQGLEWMGAIYPGPGNTKYTQKFKDRVTITADESTSTAYMELSSLRSEDTAVYYCARRGSRRGIAYWGQGTLVTVSA VL: NIVLTQSPASLSVSLGQRATISCRASESVDSYGRSFMHWYQQRPGQAPRLLIYLASNLESGVPARFSGSGSRTDFTLTISSVEAEDEATYYCQQDNEDPYTFGGGTKLEIKG"
2,0.329,"G8 (antibody, human IgG2, kappa, V domains shown) VH: QVQLVQSGAELVQPGASVKLSCKASGYTFTTYWLQWVRQTPGQGLEWMGAIYPGPGNTKYTQKFKDRVTITADTSTSTAYMQLNSLRSEDSAVYYCARRGSRRGIAYWGQGTLVTVSA VL: NIVLTQSPASLSVSLGQRATISCRASESVDSYGRSFMHWYQQRPGQAPKLLIYLASNLESGVPARFSGSGSRTDFTLTISSVEAEDEATYYCQQDNEDPYTFGGGTKLEIKG"

# Molecular target: T1, recombinant human RANKL
# Assay: cell-based or functional assay
# Remark: another data set of the same source
row,"EC50 value (ng/ml), inhibiting the cellular differentiation of RAW264.7 induced by human RANKL [ng/mL]",Binder
1,585,"114-7.38.48 (antibody, V domains shown) VH: DVQLQESGPDLVKPSQSLSLTCTVTGYSITSAYSWHWIRQFPGNKLEWMGYIHFSGVTNYNPSLKSRISITRDASKNQFFLQLSSVTTEDTATYYCATRRETGFTYWGQGTLVTVSA VL: DIVLTQSPATLSVTPGDSVSLSCRASQSISKNLHWYQQKSHESPRLLIKYASQSISGIPSRFSGSGSGTDFTLSINSVETEDFGIYFCQQINSWPLTFGAGTKLELK"
2,311,"114-2.222 (antibody, V domains shown) VH: EVQLQQSGAELVKPGASVKLSCTTSGFNIKATYIHWVQQRPEQGLEWIGRIDPANGNTKYDSKFQGKATITADTSSNTAYLQLSSLTSEDTAVYFCARSLHYYVFFDYWGQGTTLTVSS VL: DIQMTQTTSSLSASLGDRVTISCSASQGISNYLNWYQQKPDGTVKLLIYSTSSLHSGVPSRFSGSGSGTDYSLTISSLEPEDIATYYCQQYSKLPLTFGAGTKLELKR"
3,396,"114-2.402 (antibody, V domains shown) VH: EVQLQQSGTELVKPGASVKLSCTLFGFNIKATYMHWVRQRPEQGLEWIGRIDPPNGNTKYDPKFQDKATIKVDTSSNTAYLQLSSLTSEDTAVYYCAREFNRYDVWLAYWGQGTLVTVSA VL: DIQMTQTTSSLSASLGDRVTISCSASQGVSNYLNWYQQKPDGTVKLLIYSTSSLHSGVPSRFSGSGSGTDYSLTISNLEPEDVATYYCQQYSKLPFTFGSGTKLEIKR"
4,340,"114-5.9.4 (antibody, V domains shown) VH: EVQLQQSGAELVKPGASVKLSCTASGFNLKGTYIHWVKQRPGQGLEWIGRIDPANANTKYDPKFQGKATIRTDTSSNTAYLQLSSLTSEDTAVYFCSSPSGHYDVWFAYWGQGTLVTVSP VL: DIQMTQPTSSLSASLGDTVTISCSASQDISNYLNWYQQKPDGTLKLLIYYTSSLHSGVPSRFSGSGSGTDYSLTISNLEPEDIATYYCQQFSKLPLTFGAGTKLELKR"
5,267,"114-7.19.12 (antibody, V domains shown) VH: QVQLQQSGAELASPGASVKLSCKASGYTFTTYWLQWVKQRPGQGLEWIGAIYPGPGNTKYTQKFKDKATLTADKSASTAYMQLNSLTSEDSAVYYCARRGSRRGIAYWGQGTLVTVSA VL: NIVLTQSPASLAVSLGQRATISCRASESVDSYGRSFMHWYQQRPGQPPTLLIYLASNLESGVPVRFSGSGSRTDFTLTIDPVEADDAATYYCQQDNEDPYTFGGGTKLEIK"
6,470,"114-7.37.26 (antibody, V domains shown) VH: QVQLQQSGAELASPGASVKLSCKTSGYTFTTYWLQWVKQRPGQGLEWIGAIYPGPGNTKYTQKFKDKATLTADKSASTAYMQLSSLTSEDSAVYYCARRGSRRGIAYWGQGTLVTVSA VL: NIVLTQSPASLAVSLGQRATISCRASESVDSYGRSFMHWYQQRPGQPPTLLIYLASNLESGVPARFSGSGSRTDFTLTIDPVEADDAATYYCQQDNEDPYTFGGGTKLEIK"
7,799,"114-6.6.29 (antibody, V domains shown) VH: DVKLVESGGGLVKPGGSLKLSCAASGFTFSSYTMSWVRQTPEKRLEWVATISSGGSYTYYPDSVKGRFTISRDNAKNTLYLQMSSLKSEDTAMYYCTRDWDYYGTTYVGGYAMDYWGQGTSVTVSS VL: DVLMTQTPLSLPVSLGDQASISCRSSQSIVHSNGNTYLEWYLQKPGQSPKLLIYKVSNRFSGVPDRFSGSGSGTDFTLKISRVEAEDLGVYYCFQGSHVPWTFGGGTKLEIK"
8,315,"114-5.7.14 (antibody, V domains shown) VH: EVQLQQSGAELVKPGASVKLSCTASGFKIKDTYMHWVRQRPEQGLEWIGRIDSANGNIKYDPKFQGKATITADTSSKTAYLHLSSLTFEDTAVYYCSRPKSNYDFWLPYWGQGTLVTVSA VL: DIQMTQTTSSLSASLGDRVTISCSASQGISNYLNWYQQKPDGTVKLLIYYTSSLHSGVPSRFSGSGSGTDYSLTISNLEPEDIATYYCQQYSKLPLTFGAGTKLELK"

# Molecular target: T1, recombinant human RANKL
# Assay: cell-based or functional assay
# Remark: another data set of the same source
row,"IC50 (ng/ml) in RAW264.7 cells, osteoclast differentiation induced by RANKL [ng/mL]",Binder
1,~1060,"G12 (antibody, human IgG2, kappa, V domains shown) VH: QVQLVQSGAELKKPGASVKLSCKASGYTFTTYWLQWVRQAPGQGLEWMGAIYPGPGNTKYTQKFKDRFTITADTSKSTAYMQLNSLKSEDSAVYYCARRGSRRGIAYWGQGTLVTVSA VL: NIVLTQSPASLSVSLGQRATISCRASESVDSYGRSFMHWYQQRPGQAPKLLIYLASNLESGVPARFSGSGSRTDFTLTISSVEAEDEATYYCQQDNEDPYTFGGGTKLEIKG"
2,~1080,"G4 (antibody, human IgG2, kappa, V domains shown) VH: QVQLVQSGAELKKPGASVKLSCKASGYTFTTYWLQWVRQAPGQGLEWMGAIYPGPGNTKYTQKFKDRFTITADKSKSTAYMQLNSLKSEDSAVYYCARRGSRRGIAYWGQGTLVTVSA VL: NIVLTQSPASLSVSLGQRATISCRASESVDSYGRSFMHWYQQRPGQAPKLLIYLASNLESGVPARFSGSGSRTDFTLTISSVEAEDEATYYCQQDNEDPYTFGGGTKLEIKG"
3,~573,"G8 (antibody, human IgG2, kappa, V domains shown) VH: QVQLVQSGAELVQPGASVKLSCKASGYTFTTYWLQWVRQTPGQGLEWMGAIYPGPGNTKYTQKFKDRVTITADTSTSTAYMQLNSLRSEDSAVYYCARRGSRRGIAYWGQGTLVTVSA VL: NIVLTQSPASLSVSLGQRATISCRASESVDSYGRSFMHWYQQRPGQAPKLLIYLASNLESGVPARFSGSGSRTDFTLTISSVEAEDEATYYCQQDNEDPYTFGGGTKLEIKG"
4,695,"G10 (antibody, human IgG2, kappa, V domains shown) VH: QVQLVQSGAELKKPGASVKLSCKASGYTFTTYWLQWVRQAPGQGLEWMGAIYPGPGNTKYTQKFKDRFTITADTSKSTAYMQLNSLKSEDSAVYYCARRGSRRGIAYWGQGTLVTVSA VL: NIVLTQSPASLSVSLGQRATISCRASESVDSYGRSFMHWYQQRPGQAPRLLIYLASNLESGVPARFSGSGSRTDFTLTISSVEAEDEATYYCQQDNEDPYTFGGGTKLEIKG"

# Molecular target: T1, recombinant human RANKL
# Assay: ELISA, scFv supernatant on coated hRANKL, anti-c-myc-HRP
# Method: For VH, VL libraries, 5×96 clones selected randomly from SOBAG cloning plates obtained in the third round and the fourth round are vaccinated on 96-deep-well plates respectively, 400 μl 2×YT-AG medium is contained in each well, the bacterial liquid is cultivated with shaking, at 30° C., 200 rpm overnight. The next day, the bacterial liquid on the deep-well plate is transferred by 1:50 to a new 96-deep-well plate containing 400 μl 2×YT-AG fresh medium. The bacterial liquid is cultivated with shaking at 37° C., 200 rpm until OD600 is about 0.8 (for about 3 hours). The bacterial is collected through 1500 g centrifugation for 10 minutes, the supernatant is removed, and the bacterial is resuspended with 400 μl of sterile fresh 2×YT-AI (I refers to IPTG, with a final concentration of […]) culture medium, the suspension is cultivated with shaking at 30° C., 200 rpm overnight (that is, the expression of scFv is induced overnight). The expressed inductively scFv supernatant on the deep-well plate is centrifuged at 3000 g for 20 min, 300 μl supernatant is transferred to a clean 96-well cell plate for backup.
# The plates are washed three times with PBST (containing 0.05% Tween 20). The plates are closed with blocking solution (PBS solution containing 2% (WN) of BSA) for 1˜1.5 hours at room temperature. […] The closed microtiter plate is incubated for 2 hours at room temperature, washed three times with PBST.
row,binding result,Binder
1,binds,"pFL249-L10u (scFv, scFv in IPTG-induced E. coli supernatant, screened by ELISA; also called L10u scFv clone of the VL library; not shown: c-myc tag and his tag of vector pFL249) scFv: QVQLQQSGAELASPGASVKLSCKASGYTFTTYWLQWVKQRPGQGLEWIGAIYPGPGNTKYTQKFKDKATLTADKSASTAYMQLNSLTSEDSAVYYCARRGSRRGIAYWGQGTLVTVSAASSGGGGSGGGGSGGGGSSNIVLTQSPASLSVSLGQRATISCRASESVDSYGRSFMHWYQQRPGQAPKLLIYLASNLESGVPARFSGSGSRTDFTLTISSVEAEDEATYYCQQDNEDPYTFGGGTKLEIK"
2,binds,"pFL249-L10 (scFv, scFv in IPTG-induced E. coli supernatant, screened by ELISA; also called L10 scFv clone of the VL library; not shown: c-myc tag and his tag of vector pFL249) scFv: QVQLQQSGAELASPGASVKLSCKASGYTFTTYWLQWVKQRPGQGLEWIGAIYPGPGNTKYTQKFKDKATLTADKSASTAYMQLNSLTSEDSAVYYCARRGSRRGIAYWGQGTLVTVSAASSGGGGSGGGGSGGGGSSNIVLTQSPASLSVSLGQRATISCRASESVDSYGRSFMHWYQQRPGQAPRLLIYLASNLESGVPARFSGSGSRTDFTLTISSVEAEDEATYYCQQDNEDPYTFGGGTKLEIK"
3,binds,"pFL249-L37u (scFv, scFv in IPTG-induced E. coli supernatant, screened by ELISA; also called L37u scFv clone of the VL library; not shown: c-myc tag and his tag of vector pFL249) scFv: QVQLQQSGAELASPGASVKLSCKASGYTFTTYWLQWVKQRPGQGLEWIGAIYPGPGNTKYTQKFKDKATLTADKSASTAYMQLNSLTSEDSAVYYCARRGSRRGIAYWGQGTLVTVSAASSGGGGSGGGGSGGGGSSNIVLTQSPASLSVSLGQRATISCRASESVDSYGRSFMHWYQQKPGQAPKLLIYLASNLESGVPSRFSGSGSRTDFTLTISRVEAEDAATYYCQQDNEDPYTFGGGTKLEIK"
4,binds,"pFL249-L37 (scFv, scFv in IPTG-induced E. coli supernatant, screened by ELISA; also called L37 scFv clone of the VL library; not shown: c-myc tag and his tag of vector pFL249) scFv: QVQLQQSGAELASPGASVKLSCKASGYTFTTYWLQWVKQRPGQGLEWIGAIYPGPGNTKYTQKFKDKATLTADKSASTAYMQLNSLTSEDSAVYYCARRGSRRGIAYWGQGTLVTVSAASSGGGGSGGGGSGGGGSSNIVLTQSPASLSVSLGQRATISCRASESVDSYGRSFMHWYQQKPGQAPKLLIYLASNLESGVPSRFSGSGSRTDFTLTISAVEAEDAATYYCQQDNEDPYTFGGGTKLEIK"
